T1: Ets-1ΔN331 (minimal ETS domain) (mouse (murine)?, UniProt P27577 331-440)
T1 sequence: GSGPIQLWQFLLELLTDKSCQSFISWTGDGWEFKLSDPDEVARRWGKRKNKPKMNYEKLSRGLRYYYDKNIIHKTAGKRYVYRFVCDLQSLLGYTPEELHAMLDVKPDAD

B1: SC1 unmethylated (dsDNA)
DNA 1: CGGCCAAGCCGGAAGTGAGTGCC
DNA 2: GGCACTCACTTCCGGCTTGGCCG
B2: SC1 hemi-methylated, forward (5'-GGAA-3' strand) (dsDNA)
DNA 1: CGGCCAAGCCGGAAGTGAGTGCC
DNA 2: GGCACTCACTTCCGGCTTGGCCG
modifications: 5-methyl-dC at strand 1 position 10 (CpG)

What was measured:
[1] = target: PU.1ΔN167 (ETS domain) (mouse (murine), UniProt P17433 167-272); assay: competitive fluorescence anisotropy
[2] = target: T1, Ets-1ΔN331 (minimal ETS domain); assay: competitive fluorescence anisotropy

Binder | Kd [1] | Kd [2]
B1 | 320 ± 170 pM | 140 ± 30 pM
B2 | 1500 ± 900 pM | –

Reference: paper PMC5062964
